Results reported in PMC7864943, “Structural elements in the flexible tail of the co-chaperone p23 coordinate client binding and progression of the Hsp90 chaperone cycle” (Nature Communications, 2021).

Assays:
Conditions in all cases: both partners purified
[1] = target: T1, human Hsp90β, full length (human, UniProt P08238 1-724); assay: NMR titration; 1H-15N HSQC of 15N-labeled p23 with unlabeled full-length Hsp90/AMP-PNP or GR-LBDm alone; peak intensity ratios; 25 mM Tris, 200 mM NaCl, 5 mM DTT, 0.5 mM dexamethasone, pH 7; 30 °C
T1 construct: also called Hsp90 FL (human); source: E. coli BL-21 DE3, purified (the methods speak of Hsp90 and p23 in general)
T1 sequence (P08238 whole entry): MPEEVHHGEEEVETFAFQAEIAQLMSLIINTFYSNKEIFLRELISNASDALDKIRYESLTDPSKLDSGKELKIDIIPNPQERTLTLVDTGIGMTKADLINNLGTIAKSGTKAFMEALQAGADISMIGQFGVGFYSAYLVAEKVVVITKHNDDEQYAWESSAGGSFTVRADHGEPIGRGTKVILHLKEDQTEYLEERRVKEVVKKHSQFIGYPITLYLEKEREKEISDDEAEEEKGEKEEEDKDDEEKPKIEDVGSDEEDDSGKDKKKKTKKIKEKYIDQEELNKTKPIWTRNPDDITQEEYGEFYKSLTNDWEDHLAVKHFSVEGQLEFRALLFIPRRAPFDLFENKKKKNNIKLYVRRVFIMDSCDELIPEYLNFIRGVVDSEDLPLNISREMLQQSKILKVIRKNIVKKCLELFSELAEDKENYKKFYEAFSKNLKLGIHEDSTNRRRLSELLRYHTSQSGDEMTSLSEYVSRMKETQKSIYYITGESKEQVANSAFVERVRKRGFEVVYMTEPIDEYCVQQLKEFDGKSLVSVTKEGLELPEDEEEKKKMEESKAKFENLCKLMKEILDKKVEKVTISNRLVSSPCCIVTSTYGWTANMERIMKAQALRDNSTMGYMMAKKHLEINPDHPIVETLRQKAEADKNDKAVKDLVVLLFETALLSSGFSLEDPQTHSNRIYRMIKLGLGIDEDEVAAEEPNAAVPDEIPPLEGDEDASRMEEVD

[2] = target: T2, yeast Hsp90 (Hsp82), full length (yeast, UniProt P02829 1-709); assay: ITC; 20 µM Hsp90 in the cell, p23^WT (135 µM) or mutants (up to 360 µM) in the syringe; 2 mM AMP-PNP; 40 mM Hepes, 150 mM KCl, 5 mM MgCl2, 1 mM DTT, pH 7.5; 30 °C
T2 construct: Hsp90 (Hsp82), yeast, full-length protein; Isotope-labelled (methyl-labelled, deuterated) in some NMR experiments; also called Hsp90 FL; Hsp90 dimer
T2 sequence (P02829 whole entry): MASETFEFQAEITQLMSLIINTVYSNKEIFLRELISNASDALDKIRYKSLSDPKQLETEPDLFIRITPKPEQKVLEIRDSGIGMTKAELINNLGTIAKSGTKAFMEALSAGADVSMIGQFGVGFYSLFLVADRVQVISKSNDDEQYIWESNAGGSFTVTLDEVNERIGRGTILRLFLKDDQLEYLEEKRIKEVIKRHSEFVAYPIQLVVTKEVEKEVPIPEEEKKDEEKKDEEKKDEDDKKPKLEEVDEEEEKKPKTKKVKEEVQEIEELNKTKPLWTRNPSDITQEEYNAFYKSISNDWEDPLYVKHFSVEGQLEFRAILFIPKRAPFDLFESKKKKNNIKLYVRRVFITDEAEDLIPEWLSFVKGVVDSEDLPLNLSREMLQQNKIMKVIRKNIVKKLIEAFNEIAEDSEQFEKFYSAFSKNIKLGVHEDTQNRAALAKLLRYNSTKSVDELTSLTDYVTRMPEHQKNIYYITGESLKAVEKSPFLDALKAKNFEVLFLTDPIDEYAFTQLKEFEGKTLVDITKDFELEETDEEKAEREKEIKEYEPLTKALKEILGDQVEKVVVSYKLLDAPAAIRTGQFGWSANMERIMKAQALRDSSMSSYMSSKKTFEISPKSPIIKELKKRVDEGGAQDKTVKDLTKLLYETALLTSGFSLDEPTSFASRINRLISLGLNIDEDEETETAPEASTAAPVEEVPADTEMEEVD

[3] = target: T2, yeast Hsp90 (Hsp82), full length; assay: ATPase inhibition assay; apparent Ki; ATP-regenerating system, 30 °C; 3 µM yeast Hsp90 (Hsp82) with rising concentrations of p23 or mutants; 40 mM Hepes, 150 mM KCl, 5 mM MgCl2, 1 mM DTT, pH 7.5; 2 mM ATP

binding result [1]	Kd [2]	Ki [3]	Binder
binds			human p23 (natural protein, UniProt Q15185 1-160, looked up, p23, human; helical stretch at residues 117-127 of the tail; 15N-labelled; also called p23 (human); source: E. coli BL-21 DE3, purified (the methods speak of Hsp90 and p23 in general)) MQPASAKWYDRRDYVFIEFCVEDSKDVNVNFEKSKLTFSCLGGSDNFKHLNEIDLFHCIDPNDSKHKRTDRSILCCLRKGESGQSWPRLTKERAKLNWLSVDFNNWKDWEDDSDEDMSNFDRFSEMMNNMGGDEDVDLPEVDGADDDSQDSDDEKMPDLE
	1.3 µM	2.6 µM	yeast p23^W124A (natural protein, UniProt P28707 1-216, looked up, p23/Sba1, yeast, point mutant of the wild type (aa 1-216); source: E. coli BL-21 DE3, purified) MSDKVINPQVAWAQRSSTTDPERNYVLITVSIADCDAPELTIKPSYIELKAQSKPHVGDENVHHYQLHIDLYKEIIPEKTMHKVANGQHYFLKLYKKDLESEYWPRLTKEKVKYPYIKTDFDKAVDEDEQDEVEAEGNDAAQGMDFSQMMGGAGGAGGAGGMDFSQMMGGAGGAGSPDMAQLQQLLAQSGGNLDMGDFKENDEEDEEEEIEPEVKA
		10.8 µM	yeast p23^Δ91 (domain or fragment, UniProt P28707 1-125, looked up, p23/Sba1, yeast, C-terminal deletion mutant Δ91; source: E. coli BL-21 DE3, purified) MSDKVINPQVAWAQRSSTTDPERNYVLITVSIADCDAPELTIKPSYIELKAQSKPHVGDENVHHYQLHIDLYKEIIPEKTMHKVANGQHYFLKLYKKDLESEYWPRLTKEKVKYPYIKTDFDKWV
	2.3 µM	2.2 µM	yeast p23^Δ88 (domain or fragment, UniProt P28707 1-128, looked up, p23/Sba1, yeast, C-terminal deletion mutant Δ88; source: E. coli BL-21 DE3, purified) MSDKVINPQVAWAQRSSTTDPERNYVLITVSIADCDAPELTIKPSYIELKAQSKPHVGDENVHHYQLHIDLYKEIIPEKTMHKVANGQHYFLKLYKKDLESEYWPRLTKEKVKYPYIKTDFDKWVDED
